The labels stand for the following.
B1: CIgG4E2A1(RS) (Fc fusion)
chain 1: GPPCPPCPAPEFLGGPSVFLFPPKPKDTLMISRTPEVTCVVVDVSQEDPEVQFNWYVDGVEVHNAKTKPREEQFNSTYRVVSVLTVLHQDWLNGKEYKCKVSNKGLPSSIEKTISKAKGQPREPQVYTLPPCQEEMTKNQVSLWCLVKGFYPSDIAVEWESNGQPENNYKTTPPVLDSDGSFFLYSRLTVDKSRWQEGNVFSCSVMHEALHNHYTQKSLSLSLGKRSDVQLQESGGGLVQAGGSLRLSCAASGRTISRYAVGWFRRPPAKEREFIGINWSGGSTTYADSAEGRFIISRDNAKNTVYLQMNSLKPEDTAVYYCAVPSVLVQGGISNPSQYDYWGQGTQVTVS
chain 2: GPPCPPCPAPEFLGGPSVFLFPPKPKDTLMISRTPEVTCVVVDVSQEDPEVQFNWYVDGVEVHNAKTKPREEQFNSTYRVVSVLTVLHQDWLNGKEYKCKVSNKGLPSSIEKTISKAKGQPREPQVCTLPPSQEEMTKNQVSLSCAVKGFYPSDIAVEWESNGQPENNYKTTPPVLDSDGSFFLVSRLTVDKSRWQEGNVFSCSVMHEALHNHYTQKSLSLSLGKRSEVQLLESGGGLVQPGGSLRLSCAASGFTFGNYDMAWVRQAPGKRPEWVSSIDTGGDITHYADSVKGRFTISRDNAKNTLYLQMNSLRPEDTAVYWCATDEEYALGPNEFDYYGQGTLVTVSS
B2: CIgG4E3A1(RS) (Fc fusion)
chain 1: GPPCPPCPAPEFLGGPSVFLFPPKPKDTLMISRTPEVTCVVVDVSQEDPEVQFNWYVDGVEVHNAKTKPREEQFNSTYRVVSVLTVLHQDWLNGKEYKCKVSNKGLPSSIEKTISKAKGQPREPQVYTLPPCQEEMTKNQVSLWCLVKGFYPSDIAVEWESNGQPENNYKTTPPVLDSDGSFFLYSRLTVDKSRWQEGNVFSCSVMHEALHNHYTQKSLSLSLGKRSDVQLQESGGGLVQAGGSLRLACAASGRTLSSYVVSWFRQAPGKERKFVAAITWSGLSTTYLDSVQGRFTISRDNTKDTVYLQMNSLKPQDTAIYYCAAGPNIPSILRTRESEYAYWGQGTQVTVS
chain 2: GPPCPPCPAPEFLGGPSVFLFPPKPKDTLMISRTPEVTCVVVDVSQEDPEVQFNWYVDGVEVHNAKTKPREEQFNSTYRVVSVLTVLHQDWLNGKEYKCKVSNKGLPSSIEKTISKAKGQPREPQVCTLPPSQEEMTKNQVSLSCAVKGFYPSDIAVEWESNGQPENNYKTTPPVLDSDGSFFLVSRLTVDKSRWQEGNVFSCSVMHEALHNHYTQKSLSLSLGKRSEVQLLESGGGLVQPGGSLRLSCAASGFTFGNYDMAWVRQAPGKRPEWVSSIDTGGDITHYADSVKGRFTISRDNAKNTLYLQMNSLRPEDTAVYWCATDEEYALGPNEFDYYGQGTLVTVSS
B3: CIgG4E2A1(G4S)1 (Fc fusion)
chain 1: GPPCPPCPAPEFLGGPSVFLFPPKPKDTLMISRTPEVTCVVVDVSQEDPEVQFNWYVDGVEVHNAKTKPREEQFNSTYRVVSVLTVLHQDWLNGKEYKCKVSNKGLPSSIEKTISKAKGQPREPQVYTLPPCQEEMTKNQVSLWCLVKGFYPSDIAVEWESNGQPENNYKTTPPVLDSDGSFFLYSRLTVDKSRWQEGNVFSCSVMHEALHNHYTQKSLSLSLGKGGGGSDVQLQESGGGLVQAGGSLRLSCAASGRTISRYAVGWFRRPPAKEREFIGINWSGGSTTYADSAEGRFIISRDNAKNTVYLQMNSLKPEDTAVYYCAVPSVLVQGGISNPSQYDYWGQGTQVTVS
chain 2: GPPCPPCPAPEFLGGPSVFLFPPKPKDTLMISRTPEVTCVVVDVSQEDPEVQFNWYVDGVEVHNAKTKPREEQFNSTYRVVSVLTVLHQDWLNGKEYKCKVSNKGLPSSIEKTISKAKGQPREPQVCTLPPSQEEMTKNQVSLSCAVKGFYPSDIAVEWESNGQPENNYKTTPPVLDSDGSFFLVSRLTVDKSRWQEGNVFSCSVMHEALHNHYTQKSLSLSLGKGGGGSEVQLLESGGGLVQPGGSLRLSCAASGFTFGNYDMAWVRQAPGKRPEWVSSIDTGGDITHYADSVKGRFTISRDNAKNTLYLQMNSLRPEDTAVYWCATDEEYALGPNEFDYYGQGTLVTVSS
B4: CIgG4E3A1(G4S)1 (Fc fusion)
chain 1: GPPCPPCPAPEFLGGPSVFLFPPKPKDTLMISRTPEVTCVVVDVSQEDPEVQFNWYVDGVEVHNAKTKPREEQFNSTYRVVSVLTVLHQDWLNGKEYKCKVSNKGLPSSIEKTISKAKGQPREPQVYTLPPCQEEMTKNQVSLWCLVKGFYPSDIAVEWESNGQPENNYKTTPPVLDSDGSFFLYSRLTVDKSRWQEGNVFSCSVMHEALHNHYTQKSLSLSLGKGGGGSDVQLQESGGGLVQAGGSLRLACAASGRTLSSYVVSWFRQAPGKERKFVAAITWSGLSTTYLDSVQGRFTISRDNTKDTVYLQMNSLKPQDTAIYYCAAGPNIPSILRTRESEYAYWGQGTQVTVS
chain 2: GPPCPPCPAPEFLGGPSVFLFPPKPKDTLMISRTPEVTCVVVDVSQEDPEVQFNWYVDGVEVHNAKTKPREEQFNSTYRVVSVLTVLHQDWLNGKEYKCKVSNKGLPSSIEKTISKAKGQPREPQVCTLPPSQEEMTKNQVSLSCAVKGFYPSDIAVEWESNGQPENNYKTTPPVLDSDGSFFLVSRLTVDKSRWQEGNVFSCSVMHEALHNHYTQKSLSLSLGKGGGGSEVQLLESGGGLVQPGGSLRLSCAASGFTFGNYDMAWVRQAPGKRPEWVSSIDTGGDITHYADSVKGRFTISRDNAKNTLYLQMNSLRPEDTAVYWCATDEEYALGPNEFDYYGQGTLVTVSS
B5: CIgG4E1A1(G4S)2 (Fc fusion)
chain 1: GPPCPPCPAPEFLGGPSVFLFPPKPKDTLMISRTPEVTCVVVDVSQEDPEVQFNWYVDGVEVHNAKTKPREEQFNSTYRVVSVLTVLHQDWLNGKEYKCKVSNKGLPSSIEKTISKAKGQPREPQVYTLPPCQEEMTKNQVSLWCLVKGFYPSDIAVEWESNGQPENNYKTTPPVLDSDGSFFLYSRLTVDKSRWQEGNVFSCSVMHEALHNHYTQKSLSLSLGKGGGGSGGGGSDVQLQESGGGLVQAGGSLRLSCLASGRTFTTTSGYNMGWFRQAPGKEREFVAGIKWVSGSNRAYAESVKGRFTISRDNAKNTVYLQMNSLKPEDTAVYYCAAATGQSYVPIREYEYVYWGQGTQVTVS
chain 2: GPPCPPCPAPEFLGGPSVFLFPPKPKDTLMISRTPEVTCVVVDVSQEDPEVQFNWYVDGVEVHNAKTKPREEQFNSTYRVVSVLTVLHQDWLNGKEYKCKVSNKGLPSSIEKTISKAKGQPREPQVCTLPPSQEEMTKNQVSLSCAVKGFYPSDIAVEWESNGQPENNYKTTPPVLDSDGSFFLVSRLTVDKSRWQEGNVFSCSVMHEALHNHYTQKSLSLSLGKGGGGSGGGGSEVQLLESGGGLVQPGGSLRLSCAASGFTFGNYDMAWVRQAPGKRPEWVSSIDTGGDITHYADSVKGRFTISRDNAKNTLYLQMNSLRPEDTAVYWCATDEEYALGPNEFDYYGQGTLVTVSS
B6: CIgG4E2A1(G4S)2 (Fc fusion)
chain 1: GPPCPPCPAPEFLGGPSVFLFPPKPKDTLMISRTPEVTCVVVDVSQEDPEVQFNWYVDGVEVHNAKTKPREEQFNSTYRVVSVLTVLHQDWLNGKEYKCKVSNKGLPSSIEKTISKAKGQPREPQVYTLPPCQEEMTKNQVSLWCLVKGFYPSDIAVEWESNGQPENNYKTTPPVLDSDGSFFLYSRLTVDKSRWQEGNVFSCSVMHEALHNHYTQKSLSLSLGKGGGGSGGGGSDVQLQESGGGLVQAGGSLRLSCAASGRTISRYAVGWFRRPPAKEREFIGINWSGGSTTYADSAEGRFIISRDNAKNTVYLQMNSLKPEDTAVYYCAVPSVLVQGGISNPSQYDYWGQGTQVTVS
chain 2: GPPCPPCPAPEFLGGPSVFLFPPKPKDTLMISRTPEVTCVVVDVSQEDPEVQFNWYVDGVEVHNAKTKPREEQFNSTYRVVSVLTVLHQDWLNGKEYKCKVSNKGLPSSIEKTISKAKGQPREPQVCTLPPSQEEMTKNQVSLSCAVKGFYPSDIAVEWESNGQPENNYKTTPPVLDSDGSFFLVSRLTVDKSRWQEGNVFSCSVMHEALHNHYTQKSLSLSLGKGGGGSGGGGSEVQLLESGGGLVQPGGSLRLSCAASGFTFGNYDMAWVRQAPGKRPEWVSSIDTGGDITHYADSVKGRFTISRDNAKNTLYLQMNSLRPEDTAVYWCATDEEYALGPNEFDYYGQGTLVTVSS
B7: CIgG4E1A1(G4S)3 (Fc fusion)
chain 1: GPPCPPCPAPEFLGGPSVFLFPPKPKDTLMISRTPEVTCVVVDVSQEDPEVQFNWYVDGVEVHNAKTKPREEQFNSTYRVVSVLTVLHQDWLNGKEYKCKVSNKGLPSSIEKTISKAKGQPREPQVYTLPPCQEEMTKNQVSLWCLVKGFYPSDIAVEWESNGQPENNYKTTPPVLDSDGSFFLYSRLTVDKSRWQEGNVFSCSVMHEALHNHYTQKSLSLSLGKGGGGSGGGGSGGGGSDVQLQESGGGLVQAGGSLRLSCLASGRTFTTTSGYNMGWFRQAPGKEREFVAGIKWVSGSNRAYAESVKGRFTISRDNAKNTVYLQMNSLKPEDTAVYYCAAATGQSYVPIREYEYVYWGQGTQVTVS
chain 2: GPPCPPCPAPEFLGGPSVFLFPPKPKDTLMISRTPEVTCVVVDVSQEDPEVQFNWYVDGVEVHNAKTKPREEQFNSTYRVVSVLTVLHQDWLNGKEYKCKVSNKGLPSSIEKTISKAKGQPREPQVCTLPPSQEEMTKNQVSLSCAVKGFYPSDIAVEWESNGQPENNYKTTPPVLDSDGSFFLVSRLTVDKSRWQEGNVFSCSVMHEALHNHYTQKSLSLSLGKGGGGSGGGGSGGGGSEVQLLESGGGLVQPGGSLRLSCAASGFTFGNYDMAWVRQAPGKRPEWVSSIDTGGDITHYADSVKGRFTISRDNAKNTLYLQMNSLRPEDTAVYWCATDEEYALGPNEFDYYGQGTLVTVSS
B8: CIgG4E2A1(G4S)3 (Fc fusion)
chain 1: GPPCPPCPAPEFLGGPSVFLFPPKPKDTLMISRTPEVTCVVVDVSQEDPEVQFNWYVDGVEVHNAKTKPREEQFNSTYRVVSVLTVLHQDWLNGKEYKCKVSNKGLPSSIEKTISKAKGQPREPQVYTLPPCQEEMTKNQVSLWCLVKGFYPSDIAVEWESNGQPENNYKTTPPVLDSDGSFFLYSRLTVDKSRWQEGNVFSCSVMHEALHNHYTQKSLSLSLGKGGGGSGGGGSGGGGSDVQLQESGGGLVQAGGSLRLSCAASGRTISRYAVGWFRRPPAKEREFIGINWSGGSTTYADSAEGRFIISRDNAKNTVYLQMNSLKPEDTAVYYCAVPSVLVQGGISNPSQYDYWGQGTQVTVS
chain 2: GPPCPPCPAPEFLGGPSVFLFPPKPKDTLMISRTPEVTCVVVDVSQEDPEVQFNWYVDGVEVHNAKTKPREEQFNSTYRVVSVLTVLHQDWLNGKEYKCKVSNKGLPSSIEKTISKAKGQPREPQVCTLPPSQEEMTKNQVSLSCAVKGFYPSDIAVEWESNGQPENNYKTTPPVLDSDGSFFLVSRLTVDKSRWQEGNVFSCSVMHEALHNHYTQKSLSLSLGKGGGGSGGGGSGGGGSEVQLLESGGGLVQPGGSLRLSCAASGFTFGNYDMAWVRQAPGKRPEWVSSIDTGGDITHYADSVKGRFTISRDNAKNTLYLQMNSLRPEDTAVYWCATDEEYALGPNEFDYYGQGTLVTVSS

These results are taken from patent publication US20250171562A1 (ALK ABELL, published 2025).

For the experiment, the target named is T1, recombinant human IgE (human, UniProt P01854-1 1-428).
T1 construct: made in-house (ALK); preloaded on immobilised FcεRIα in the displacement ELISA
T1 sequence (P01854 other isoform, or with tags, fused parts or gaps): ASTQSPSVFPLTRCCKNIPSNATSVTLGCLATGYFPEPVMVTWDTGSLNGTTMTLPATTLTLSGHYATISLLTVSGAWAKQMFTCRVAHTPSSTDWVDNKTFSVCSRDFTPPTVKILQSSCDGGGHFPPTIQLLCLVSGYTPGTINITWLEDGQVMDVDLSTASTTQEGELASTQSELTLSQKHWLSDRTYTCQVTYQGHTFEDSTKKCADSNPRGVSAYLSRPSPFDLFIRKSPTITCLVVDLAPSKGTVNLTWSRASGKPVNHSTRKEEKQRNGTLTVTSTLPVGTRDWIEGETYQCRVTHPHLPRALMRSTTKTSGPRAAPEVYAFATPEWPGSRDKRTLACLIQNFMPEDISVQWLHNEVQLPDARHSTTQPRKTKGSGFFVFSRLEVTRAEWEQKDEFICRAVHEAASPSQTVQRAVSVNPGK
The experiment in a line: IgE-FcεRIα displacement ELISA. Summed up:
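sdAbs at pM–μM were incubated 1 h on preformed complexes of 13 ng/ml recombinant human IgE with avi-tag-biotinylated human FcεRIα captured on streptavidin.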
As to B1, the Max effect is 25%.

Take B2: the Max effect was 30%.

In the case of B3, the EC50 is 1 µM and the Max effect stood at 50%.

As for B4, the EC50 came out at 0.13 µM and the Max effect was 85%.

B5: the EC50 stood at 0.01 µM and the Max effect is over 95%.

With B6, the half-maximal effective concentration (EC50) was found to be 0.41 µM and the Max effect worked out at 65%.

Regarding B7, the EC50 turned out to be 0.009 µM and the Max effect is over 95%.

Turning to B8, the EC50 came out at 0.16 µM and the Max effect stood at 75%.
